From article PMC3229523, “Identification of Lactoferricin B Intracellular Targets Using an Escherichia coli Proteome Chip” (PLoS ONE, 2011)
Ends that are not written are not given here.

Experiments:
Test in all cases: fluorescence polarisation; 100 nM DyLight 549-labeled LfcinB as tracer; two-fold serial dilution of protein from 0.4 µM to 0.025 µM in PBS, 0.005% BSA, 0.01% Triton X-100; room temperature, 1 h; compared with BSA
Conditions in all cases: both partners purified
adenylate cyclase CyaA = target: T1, adenylate cyclase CyaA (E. coli K-12, UniProt P00936 1-848)
T1 construct: CyaA, adenylate cyclase, E. coli K-12
T1 sequence (looked up): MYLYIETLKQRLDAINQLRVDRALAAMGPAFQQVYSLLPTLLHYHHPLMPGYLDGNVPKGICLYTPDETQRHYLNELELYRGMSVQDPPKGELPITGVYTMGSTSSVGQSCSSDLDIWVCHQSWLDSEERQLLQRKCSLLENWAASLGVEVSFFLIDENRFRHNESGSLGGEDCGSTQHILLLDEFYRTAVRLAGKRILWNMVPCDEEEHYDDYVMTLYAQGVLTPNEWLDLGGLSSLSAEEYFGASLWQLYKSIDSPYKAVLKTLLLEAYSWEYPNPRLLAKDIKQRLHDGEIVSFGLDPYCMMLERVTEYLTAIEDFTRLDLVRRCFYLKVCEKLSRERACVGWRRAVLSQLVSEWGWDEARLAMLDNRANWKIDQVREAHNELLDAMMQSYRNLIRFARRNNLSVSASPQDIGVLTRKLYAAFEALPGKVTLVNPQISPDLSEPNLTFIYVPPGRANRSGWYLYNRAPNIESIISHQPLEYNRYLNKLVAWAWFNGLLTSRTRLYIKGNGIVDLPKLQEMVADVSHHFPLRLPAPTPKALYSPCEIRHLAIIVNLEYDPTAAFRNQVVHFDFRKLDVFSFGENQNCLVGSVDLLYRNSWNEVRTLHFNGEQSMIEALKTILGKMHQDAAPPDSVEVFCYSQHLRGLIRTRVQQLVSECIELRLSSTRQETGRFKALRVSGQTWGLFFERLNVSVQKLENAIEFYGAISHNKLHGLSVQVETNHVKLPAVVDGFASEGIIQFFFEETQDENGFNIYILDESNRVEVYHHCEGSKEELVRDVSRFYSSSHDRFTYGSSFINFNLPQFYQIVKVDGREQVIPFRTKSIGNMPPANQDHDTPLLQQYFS

HyaF = target: T2, HyaF (E. coli K-12, UniProt P19932 1-285)
T2 construct: HyaF, E. coli K-12
T2 sequence (looked up): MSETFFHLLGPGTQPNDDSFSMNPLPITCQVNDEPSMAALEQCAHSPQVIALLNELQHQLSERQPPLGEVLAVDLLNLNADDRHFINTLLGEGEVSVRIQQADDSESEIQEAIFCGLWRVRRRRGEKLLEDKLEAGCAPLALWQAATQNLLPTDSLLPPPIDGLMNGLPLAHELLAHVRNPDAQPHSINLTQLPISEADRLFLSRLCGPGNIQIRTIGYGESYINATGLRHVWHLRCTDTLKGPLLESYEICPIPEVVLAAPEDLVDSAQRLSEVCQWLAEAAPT

MetL = target: T3, MetL (E. coli K-12, UniProt P00562 1-810)
T3 construct: MetL, E. coli K-12
T3 sequence (looked up): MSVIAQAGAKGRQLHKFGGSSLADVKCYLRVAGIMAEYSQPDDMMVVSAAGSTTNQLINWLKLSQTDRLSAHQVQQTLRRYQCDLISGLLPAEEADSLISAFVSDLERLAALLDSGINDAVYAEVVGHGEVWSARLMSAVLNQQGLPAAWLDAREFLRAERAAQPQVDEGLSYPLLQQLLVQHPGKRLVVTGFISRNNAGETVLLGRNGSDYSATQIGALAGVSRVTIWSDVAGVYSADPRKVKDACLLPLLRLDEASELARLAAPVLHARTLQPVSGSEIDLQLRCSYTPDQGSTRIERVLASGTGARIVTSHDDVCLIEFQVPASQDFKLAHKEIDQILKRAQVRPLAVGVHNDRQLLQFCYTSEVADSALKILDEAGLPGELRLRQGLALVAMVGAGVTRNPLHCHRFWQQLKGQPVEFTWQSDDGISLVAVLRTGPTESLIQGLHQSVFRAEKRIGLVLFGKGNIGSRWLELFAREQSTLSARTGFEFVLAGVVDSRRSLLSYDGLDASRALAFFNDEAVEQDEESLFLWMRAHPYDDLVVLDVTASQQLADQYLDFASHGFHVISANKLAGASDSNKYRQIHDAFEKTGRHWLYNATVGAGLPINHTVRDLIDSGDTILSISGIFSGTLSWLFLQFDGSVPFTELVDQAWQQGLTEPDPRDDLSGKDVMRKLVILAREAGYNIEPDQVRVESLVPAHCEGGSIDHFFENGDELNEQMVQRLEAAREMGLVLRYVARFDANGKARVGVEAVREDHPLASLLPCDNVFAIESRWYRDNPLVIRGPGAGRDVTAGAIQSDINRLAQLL

[1] = target: T4, ribonucleoside-diphosphate reductase 2, β subunit (E. coli K-12, UniProt P37146 1-319)
T4 construct: NrdF, ribonucleoside-diphosphate reductase 2, β subunit, E. coli K-12; no measurement of the oligomer here; also called NrdF

Measured: binding result

T4 sequence (P37146 whole entry): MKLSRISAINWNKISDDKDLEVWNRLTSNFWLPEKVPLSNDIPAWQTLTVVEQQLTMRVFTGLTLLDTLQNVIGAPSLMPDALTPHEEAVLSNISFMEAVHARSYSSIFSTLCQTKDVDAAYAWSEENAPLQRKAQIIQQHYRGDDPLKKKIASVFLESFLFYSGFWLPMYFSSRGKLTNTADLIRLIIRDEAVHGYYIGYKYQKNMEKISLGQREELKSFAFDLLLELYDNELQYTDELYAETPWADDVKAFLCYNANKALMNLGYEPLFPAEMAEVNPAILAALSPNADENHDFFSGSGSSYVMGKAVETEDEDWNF

B1: DyLight 549-labeled Lactoferricin B (peptide, UniProt P24627 36-60, looked up)
peptide: FKCRRWQWRMKKLGAPSITCVRRAF
modifications: ends and bridges not checked; also: DyLight 549 label, sites not given here
notes: lactoferricin B (LfcinB), cationic antimicrobial peptide of 25 amino acids; also called fluorescence-labeled LfcinB; LfcinB; source: bought: Kelowna Inc; labelled with DyLight 549-NHS ester, desalted
binds: all assays above
